Data as given in PMC12362618, “Development of the First Small-Molecule Inhibitor Targeting Oncostatin M for Treatment of Breast Cancer” (Journal of Medicinal Chemistry, 2025).

Molecular target: T1, glycoprotein 130 (UniProt P40189 23-619)
T1 construct: gp130 (glycoprotein 130), bought recombinant protein; also called gp130; source: bought: R&D Systems
T1 sequence (looked up): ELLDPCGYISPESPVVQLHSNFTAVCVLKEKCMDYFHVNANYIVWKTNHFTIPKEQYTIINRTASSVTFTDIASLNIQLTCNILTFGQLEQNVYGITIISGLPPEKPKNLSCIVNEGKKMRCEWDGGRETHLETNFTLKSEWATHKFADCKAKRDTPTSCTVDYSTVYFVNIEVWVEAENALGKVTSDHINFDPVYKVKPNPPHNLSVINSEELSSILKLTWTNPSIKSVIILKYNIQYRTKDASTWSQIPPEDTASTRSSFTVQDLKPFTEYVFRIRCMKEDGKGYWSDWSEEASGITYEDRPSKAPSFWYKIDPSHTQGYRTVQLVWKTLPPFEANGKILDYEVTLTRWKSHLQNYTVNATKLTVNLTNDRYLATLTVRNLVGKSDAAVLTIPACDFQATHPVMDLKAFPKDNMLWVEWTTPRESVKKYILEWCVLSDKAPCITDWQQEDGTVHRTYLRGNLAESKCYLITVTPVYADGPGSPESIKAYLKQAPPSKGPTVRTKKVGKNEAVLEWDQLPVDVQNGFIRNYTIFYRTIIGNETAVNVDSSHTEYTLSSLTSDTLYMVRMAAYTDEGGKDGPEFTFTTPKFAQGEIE
Experiment: SPR; kinetics; OSM immobilised by EDC/NHS coupling on a carboxyl mixed self-assembled monolayer gold chip (Reichert SR7000), increasing concentrations of gp130 injected; 25 °C; PBS with 0.005% Tween-20; 30 μL/min
Conditions: both partners purified

Kd: 0.0205 µM
B1: Oncostatin M (ligand, human, UniProt P13725 26-221, looked up)
chain: AAIGSCSKEYRVLLGQLQKQTDLMQDTSRLLDPYIRIQGLDVPKLREHCRERPGAFPSEETLRGLGRRGFLQTLNATLGCVLHRLADLEQRLPKAQDLERSGLNIEDLEKLQMARPNILGLRNNIYCMAQLLDNSDTAEPTKAGRGASQPPTPTPASDAFQRKLEGCRFLHGYHRFMHSVGRVFSKWGESPNRSRR
notes: Oncostatin M, human; about 24 kDa; immobilised for SPR; The construct is only 'as previously described'; also called OSM; source: recombinant OSM, 'as previously described'
